Earlier results in paper PMC12720343.

Biological target: SpoIIQ extracytoplasmic fragment (Bacillus subtilis) (UniProt P71044)
UniProt P71044, sequence (P71044 43-283): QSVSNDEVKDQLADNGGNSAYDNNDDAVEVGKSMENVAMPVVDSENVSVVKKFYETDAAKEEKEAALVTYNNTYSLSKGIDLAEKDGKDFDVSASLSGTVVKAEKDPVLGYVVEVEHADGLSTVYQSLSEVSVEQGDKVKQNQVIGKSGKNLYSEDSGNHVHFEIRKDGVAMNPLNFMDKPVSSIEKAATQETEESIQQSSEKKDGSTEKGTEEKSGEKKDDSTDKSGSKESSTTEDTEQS

Kd: 1 µM
Substance: SpoIIIAH extracytoplasmic fragment (from UniProt P49785)
